Results taken from patent CN117460833A (dated 2024).
Substitutions are numbered along the chain they refer to.

Biological target: 重组小鼠ROR1 IgG2-Fc融合蛋白 (R&D系统公司, 目录号9910-RO-050) (mouse, UniProt Q9Z139 30-403)
Assay: ELISA, coated mouse ROR1 IgG2-Fc, antibody dilutions, anti-human IgG Fc-HRP

Chain of 重组小鼠ROR1 IgG2-Fc融合蛋白 (R&D系统公司, 目录号9910-RO-050) (Q9Z139 30-403 limits assumed): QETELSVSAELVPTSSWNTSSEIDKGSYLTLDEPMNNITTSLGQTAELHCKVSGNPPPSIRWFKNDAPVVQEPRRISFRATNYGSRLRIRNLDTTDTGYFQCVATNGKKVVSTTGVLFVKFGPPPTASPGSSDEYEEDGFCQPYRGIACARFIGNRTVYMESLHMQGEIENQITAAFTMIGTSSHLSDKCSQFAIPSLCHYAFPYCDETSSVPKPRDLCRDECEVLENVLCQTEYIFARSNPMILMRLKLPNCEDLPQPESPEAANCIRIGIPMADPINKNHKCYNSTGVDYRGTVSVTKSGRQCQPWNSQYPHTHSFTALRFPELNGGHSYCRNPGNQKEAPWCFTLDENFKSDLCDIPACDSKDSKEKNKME

B1: s10 (RO6D8-s10) 抗ROR1单克隆抗体 (antibody, V domains shown)
VH: QVQLVQSGAEVKKPGASVKVSCKASGYTFTNYYMHWVRQAPGQGLEWMGIINPSGGSTSYAQKFQGRVTMTRDTSTSTVYMELSSLRSEDTAVYYCARSSRSSYYLWVLDLWGQGTTVTVSS
VL: AIQMTQSPSSLSASVGDRVTITCRASQGVSTEIAWYQQKPGKAPKLLIYAASSLQSGVPSRFSGSGSGTDFTLTISSLQPEDFATYYCQQFNSYPITFGQGTRLEIK
binding result: binds

B2: jlv1011 (RO6D8-jlv1011) 抗ROR1单克隆抗体 (antibody, V domains shown)
VH: QVQLVQSGAEVKKPGASVKVSCKASGYTFTSKYYHWVRQAPGQGLEWMGIINPTSGSTSYAQKFQGRVTMTRDTSTSTVYMELSSLRSEDTAVYYCARDSSRYSGWYFDLWGQGTTVTVSS
VL: B1 VL with M4L, F91Y, N92Y, S93G, T97A
binding result: binds
